Publication PMC6179994, “Structural insights on TRPV5 gating by endogenous modulators” (Nature Communications, 2018)

Key:
[1] = target: the molecule itself; assay: cryo-EM structure; lipid-bound TRPV5 in detergent (DMNG) with 200 µM diC8 PI(4,5)P2; C4 symmetry, 3.9 Å
[2] = target: T1, rat calmodulin (CaM), calcium-activated (rat, UniProt P0DP29 1-149); assay: cryo-EM structure; detergent solubilized TRPV5 (DMNG) incubated 1 h with 10 mM CaCl2 and rat CaM at 1:20 (TRPV5 tetramer:CaM), then SEC; map at 4.4 Å without applied symmetry; settings: both partners purified
T1 construct: calmodulin, rat; modelled from the N-lobe (residues 6-77) and C-lobe (residues 83-147) of PDB 1CLL; Expressed from the pET 28b vector; The patch clamp experiments used purified CaM from bovine testes bought from Sigma, not this recombinant protein; also called Ca^2+-CaM; source: E. coli Rosetta 2(DE3), purified (phenyl sepharose, AKTA purifier)

B1: full-length rabbit TRPV5 (transient receptor potential vanilloid 5) (natural protein, UniProt Q9XSM3 1-730, looked up)
chain: MGACPPKAKGPWAQLQKLLISWPVGEQDWEQYRDRVNMLQQERIRDSPLLQAAKENDLRLLKILLLNQSCDFQQRGAVGETALHVAALYDNLEAATLLMEAAPELAKEPALCEPFVGQTALHIAVMNQNLNLVRALLARGASVSARATGAAFRRSPHNLIYYGEHPLSFAACVGSEEIVRLLIEHGADIRAQDSLGNTVLHILILQPNKTFACQMYNLLLSYDEHSDHLQSLELVPNHQGLTPFKLAGVEGNTVMFQHLMQKRKHVQWTCGPLTSTLYDLTEIDSWGEELSFLELVVSSKKREARQILEQTPVKELVSFKWKKYGRPYFCVLASLYILYMICFTTCCIYRPLKLRDDNRTDPRDITILQQKLLQEAYVTHQDNIRLVGELVTVTGAVIILLLEIPDIFRVGASRYFGQTILGGPFHVIIITYASLVLLTMVMRLTNMNGEVVPLSFALVLGWCSVMYFARGFQMLGPFTIMIQKMIFGDLMRFCWLMAVVILGFASAFHITFQTEDPNNLGEFSDYPTALFSTFELFLTIIDGPANYSVDLPFMYCITYAAFAIIATLLMLNLFIAMMGDTHWRVAQERDELWRAQVVATTVMLERKMPRFLWPRSGICGYEYGLGDRWFLRVENHHDQNPLRVLRYVEAFKCSDKEDGQEQLSEKRPSTVESGMLSRASVAFQTPSLSRTTSQSSNSHRGWEILRRNTLGHLNLGLDLGEGDGEEVYHF
notes: TRPV5, rabbit, full length; tetrameric channel; Eluted from the beads with 1D4 peptide; no removal of the tag is described; source: Saccharomyces cerevisiae, detergent solubilized, purified (1D4 antibody Sepharose beads, SEC on Superose 6)
For B1, the “stoichiometry N” value [1] was 4 subunits and the binding result [2] was “binds”.
